fluorescein = fluorescein (fluorescent label)
How the values were obtained:
[1] = target: T1, low density lipoprotein (LDL) (UniProt P04114 28-4563); test: SPR, LDL immobilized, Fc-tagged ectodomain as analyte; LDLR ectodomain as analyte
T1 construct: Lipoprotein particle, not a pure protein; also called DiI-LDL (fluorescently labeled)
From the text: To directly examine protein-protein interactions between LDL and ALK1, surface plasmon resonance (SPR) was used with LDL immobilized to the chip and purified fragments of the Fc-tagged ectodomains for LDLR and ALK1 as analytes. […] To test if LDLR and ALK1 compete for binding to LDL, immobilized LDL was pre-bound with ALK1 or LDLR ectodomains, followed by the addition of the other ectodomain. The binding of […] was not altered when the LDL surface was pretreated with ALK1^ecto (FIG. 2C) or if LDL was pretreated with LDLR^ecto (FIG. 2D).

[2] = target: T2, ALK1-fragment crystallizable region (Fc), wild type ALK1 ectodomain (human, UniProt P37023 22-118); test: ApoB100 peptide array, fluorescence
T2 construct: also called ALK1-Fc; ALK1^ecto-Fc; not shown: Fc tag
T2 sequence (P37023 22-118): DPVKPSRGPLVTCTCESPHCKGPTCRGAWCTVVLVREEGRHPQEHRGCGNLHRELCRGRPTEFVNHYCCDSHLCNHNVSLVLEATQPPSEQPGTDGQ
Description: FIG. 6 depicts mapping of ALK1 binding to ApoB100- In order to identify binding sites that mediate the interaction of ALK1 with the core LDL protein, Apo B100, peptide mapping experiments were performed. 4,563 different peptides (15 AA in length overlapped by 14AA) derived from the human ApoB100 sequence were arrayed and incubated with a control-Fc, and ALK1-Fc and binding events measurement by fluorescence. […] The AA sequence of binding for site 1 is SEQ ID NO: 4 QDDCTGDED, site 4 is SEQ ID NO: 5 […] and site 5 is SEQ ID NO: 6 HRDFSAEYEED.

[3] = target: T2, ALK1-fragment crystallizable region …; test: substitution analysis of the 15mer peptide
From the text: FIG. 7 depicts structure function analysis of Site 1. Site 1 was interrogated as a major N-terminal binding site for ALK1 on ApoB 100.

[4] = target: T2, ALK1-fragment crystallizable region …; test: fluorescence polarization (Fp), recombinant ALK1-Fc and fluorescein labelled peptide
From the text: FIG. 8 depicts development of a fluorescence polarization (Fp) assay of ALK1 binding to ApoB100 peptide Site 1. In order to measure binding affinities of ApoB100 to ALK1 and to facilitate screening molecules that block this interaction, a Fp assay was developed using recombinant ALK1-Fc and an HPLC purified fluorescein labelled peptide, -SEQ ID NO: 8 […] with G being an N-terminal linker to fluorescein and the C-terminal L amidated.

T1 sequence (P04114 28-4563 limits assumed): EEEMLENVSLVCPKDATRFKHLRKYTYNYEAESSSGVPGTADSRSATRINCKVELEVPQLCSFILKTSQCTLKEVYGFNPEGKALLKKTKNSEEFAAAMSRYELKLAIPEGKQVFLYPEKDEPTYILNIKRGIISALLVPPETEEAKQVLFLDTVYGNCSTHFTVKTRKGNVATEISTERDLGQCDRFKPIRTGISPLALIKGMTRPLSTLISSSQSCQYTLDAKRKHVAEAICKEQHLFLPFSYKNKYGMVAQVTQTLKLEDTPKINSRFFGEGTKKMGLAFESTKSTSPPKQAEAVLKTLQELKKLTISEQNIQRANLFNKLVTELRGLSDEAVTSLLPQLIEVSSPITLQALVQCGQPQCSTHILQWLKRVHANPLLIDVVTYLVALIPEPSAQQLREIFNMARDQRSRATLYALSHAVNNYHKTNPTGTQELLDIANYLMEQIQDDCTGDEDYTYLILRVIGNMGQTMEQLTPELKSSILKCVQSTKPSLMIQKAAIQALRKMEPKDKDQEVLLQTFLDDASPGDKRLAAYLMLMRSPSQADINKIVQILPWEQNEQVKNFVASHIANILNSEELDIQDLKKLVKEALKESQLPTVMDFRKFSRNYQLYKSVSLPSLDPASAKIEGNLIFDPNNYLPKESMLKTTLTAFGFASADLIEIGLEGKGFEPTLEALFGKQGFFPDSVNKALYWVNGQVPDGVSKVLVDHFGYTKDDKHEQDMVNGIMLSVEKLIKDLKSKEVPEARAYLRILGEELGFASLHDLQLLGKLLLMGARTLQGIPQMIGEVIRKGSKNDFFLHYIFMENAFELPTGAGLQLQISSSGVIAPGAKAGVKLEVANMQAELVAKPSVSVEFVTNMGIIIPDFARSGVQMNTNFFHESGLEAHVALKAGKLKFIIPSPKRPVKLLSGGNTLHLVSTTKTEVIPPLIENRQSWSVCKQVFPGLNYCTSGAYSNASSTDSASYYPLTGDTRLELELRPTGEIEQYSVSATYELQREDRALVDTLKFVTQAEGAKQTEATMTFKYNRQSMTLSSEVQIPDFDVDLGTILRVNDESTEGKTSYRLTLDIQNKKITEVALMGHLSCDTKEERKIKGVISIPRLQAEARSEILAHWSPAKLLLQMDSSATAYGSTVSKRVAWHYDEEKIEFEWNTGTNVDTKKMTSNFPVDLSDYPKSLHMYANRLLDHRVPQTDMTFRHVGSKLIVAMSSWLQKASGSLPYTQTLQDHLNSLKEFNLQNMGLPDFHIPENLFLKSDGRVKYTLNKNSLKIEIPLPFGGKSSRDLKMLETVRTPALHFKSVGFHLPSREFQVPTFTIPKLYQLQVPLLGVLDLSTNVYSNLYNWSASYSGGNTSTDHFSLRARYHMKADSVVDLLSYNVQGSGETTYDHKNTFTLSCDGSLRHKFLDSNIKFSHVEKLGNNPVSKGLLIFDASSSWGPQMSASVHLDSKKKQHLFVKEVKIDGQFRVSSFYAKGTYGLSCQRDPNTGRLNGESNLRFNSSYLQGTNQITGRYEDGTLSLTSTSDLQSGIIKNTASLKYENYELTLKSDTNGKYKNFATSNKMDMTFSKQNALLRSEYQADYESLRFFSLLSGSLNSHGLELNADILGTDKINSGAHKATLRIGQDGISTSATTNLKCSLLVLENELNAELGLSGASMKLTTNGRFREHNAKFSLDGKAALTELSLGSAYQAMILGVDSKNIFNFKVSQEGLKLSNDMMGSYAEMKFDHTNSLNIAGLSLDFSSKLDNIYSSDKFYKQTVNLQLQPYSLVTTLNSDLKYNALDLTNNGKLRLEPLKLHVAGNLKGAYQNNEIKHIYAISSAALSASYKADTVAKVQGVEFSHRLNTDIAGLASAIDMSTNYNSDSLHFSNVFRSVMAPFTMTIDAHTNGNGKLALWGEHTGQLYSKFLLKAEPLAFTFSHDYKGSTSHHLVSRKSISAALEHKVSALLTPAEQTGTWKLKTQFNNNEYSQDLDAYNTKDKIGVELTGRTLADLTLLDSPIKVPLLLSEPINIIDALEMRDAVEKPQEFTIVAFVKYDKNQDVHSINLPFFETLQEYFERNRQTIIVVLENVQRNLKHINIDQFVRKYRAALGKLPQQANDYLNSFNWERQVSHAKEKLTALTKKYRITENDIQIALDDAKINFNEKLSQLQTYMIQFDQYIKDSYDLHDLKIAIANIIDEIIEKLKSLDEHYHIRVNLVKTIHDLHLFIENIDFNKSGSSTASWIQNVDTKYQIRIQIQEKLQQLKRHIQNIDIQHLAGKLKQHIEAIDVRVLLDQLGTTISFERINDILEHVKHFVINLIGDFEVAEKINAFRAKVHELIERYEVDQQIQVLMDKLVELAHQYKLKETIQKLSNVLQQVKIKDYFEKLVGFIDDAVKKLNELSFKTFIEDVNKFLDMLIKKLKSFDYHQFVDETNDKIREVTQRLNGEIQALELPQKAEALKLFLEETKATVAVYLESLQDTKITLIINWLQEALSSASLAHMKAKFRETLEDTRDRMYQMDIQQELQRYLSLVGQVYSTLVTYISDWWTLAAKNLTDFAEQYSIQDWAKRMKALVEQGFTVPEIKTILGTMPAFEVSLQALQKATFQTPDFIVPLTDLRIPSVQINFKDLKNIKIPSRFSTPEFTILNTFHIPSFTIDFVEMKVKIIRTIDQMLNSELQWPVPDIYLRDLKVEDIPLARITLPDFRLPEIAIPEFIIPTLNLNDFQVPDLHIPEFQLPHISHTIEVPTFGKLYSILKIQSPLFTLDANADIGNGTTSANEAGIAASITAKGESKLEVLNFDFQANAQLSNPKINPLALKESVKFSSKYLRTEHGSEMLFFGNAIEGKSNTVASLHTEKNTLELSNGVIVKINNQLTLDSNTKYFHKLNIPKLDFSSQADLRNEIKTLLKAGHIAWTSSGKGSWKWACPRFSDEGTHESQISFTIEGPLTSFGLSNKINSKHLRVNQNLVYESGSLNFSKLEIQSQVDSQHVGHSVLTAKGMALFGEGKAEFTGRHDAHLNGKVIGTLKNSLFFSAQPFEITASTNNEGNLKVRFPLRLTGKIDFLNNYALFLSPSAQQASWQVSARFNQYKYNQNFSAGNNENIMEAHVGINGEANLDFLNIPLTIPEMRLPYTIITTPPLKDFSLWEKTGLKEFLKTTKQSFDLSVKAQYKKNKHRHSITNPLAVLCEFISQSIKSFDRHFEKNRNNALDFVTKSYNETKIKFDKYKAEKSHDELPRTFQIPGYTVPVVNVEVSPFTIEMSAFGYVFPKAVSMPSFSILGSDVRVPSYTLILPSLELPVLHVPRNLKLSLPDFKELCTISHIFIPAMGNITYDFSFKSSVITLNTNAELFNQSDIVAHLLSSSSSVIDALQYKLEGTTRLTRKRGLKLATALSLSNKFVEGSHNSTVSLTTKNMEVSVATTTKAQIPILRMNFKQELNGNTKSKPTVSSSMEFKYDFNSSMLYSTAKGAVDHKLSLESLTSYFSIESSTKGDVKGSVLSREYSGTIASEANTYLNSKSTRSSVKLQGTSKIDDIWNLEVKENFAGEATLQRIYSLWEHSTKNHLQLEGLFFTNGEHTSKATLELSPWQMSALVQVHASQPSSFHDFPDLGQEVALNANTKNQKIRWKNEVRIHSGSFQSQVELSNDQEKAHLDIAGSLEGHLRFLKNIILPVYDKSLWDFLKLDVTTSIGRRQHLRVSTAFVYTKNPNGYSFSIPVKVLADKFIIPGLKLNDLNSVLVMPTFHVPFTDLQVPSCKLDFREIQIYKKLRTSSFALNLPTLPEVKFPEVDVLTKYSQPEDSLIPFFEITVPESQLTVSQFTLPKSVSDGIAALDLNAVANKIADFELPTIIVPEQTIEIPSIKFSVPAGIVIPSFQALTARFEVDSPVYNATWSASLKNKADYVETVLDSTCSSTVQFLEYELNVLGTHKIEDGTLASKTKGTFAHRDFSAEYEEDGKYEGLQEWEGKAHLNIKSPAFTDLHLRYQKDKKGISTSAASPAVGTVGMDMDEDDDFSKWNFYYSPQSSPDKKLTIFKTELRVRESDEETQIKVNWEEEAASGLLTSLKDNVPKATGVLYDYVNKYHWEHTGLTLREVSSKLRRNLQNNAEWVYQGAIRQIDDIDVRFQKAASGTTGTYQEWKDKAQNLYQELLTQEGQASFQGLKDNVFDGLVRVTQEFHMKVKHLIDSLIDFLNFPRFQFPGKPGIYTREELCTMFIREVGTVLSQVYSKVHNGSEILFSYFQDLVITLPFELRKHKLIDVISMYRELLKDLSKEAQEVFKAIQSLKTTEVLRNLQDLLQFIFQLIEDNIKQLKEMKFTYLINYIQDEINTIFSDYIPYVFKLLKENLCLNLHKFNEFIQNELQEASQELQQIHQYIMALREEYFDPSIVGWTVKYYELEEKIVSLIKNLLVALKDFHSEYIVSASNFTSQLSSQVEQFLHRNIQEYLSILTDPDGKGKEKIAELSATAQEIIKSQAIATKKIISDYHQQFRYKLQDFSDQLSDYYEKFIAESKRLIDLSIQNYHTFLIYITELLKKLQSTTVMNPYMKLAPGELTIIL

Binder	binding result [2]	also measured
Fc-tagged ectodomain of LDLR (Fc fusion, not shown: a dimerising Fc or GST, extracellular domain; also called LDLR^ecto) not shown	–	Kd [1]: 7 nM
QDDCTGDED (also called QDDCTGDED) [ApoB100 Site 1]	binds	–
RKRGLKLAT [ApoB100 Site 4]	binds	–
HRDFSAEYEED (also called HRDFSAEYEED) [ApoB100 Site 5]	binds	–
EQIQDDCTGDEDYTY [ApoB100 Site 1 15mer peptide EQIQDDCTGDEDYTY]	–	binding result [3]: binds
fluorescein-GQDDCTGDEDYTYLIL-NH2 (also called HPLC purified fluorescein labelled peptide) [fluorescein labelled ApoB100 peptide Site 1, GQDDCTGDEDYTYLIL]	–	Kd [4]: 2450 nM
